Changes are numbered by the printed parent chain.
B1: Wild-type: wild-type tyrosyl-tRNA synthetase of E. coli (SEQ ID NO: 1): position 37 Tyrosine, position 195 Glutamine (protein, listed as Escherichia coli)
chain: MASSNLIKQLQERGLVAQVTDEEALAERLAQGPIALYCGFDPTADSLHLGHLVPLLCLKRFQQAGHKPVALVGGATGLIGDPSFKAAERKLNTEETVQEWVDKIRKQVAPFLDFDCGENSAIAANNYDWFGNMNVLTFLRDIGKHFSVNQMINKEAVKQRLNREDQGISFTEFSYNLLQGYDFACLNKQYGVVLQIGGSDQWGNITSGIDLTRRLHQNQVFGLTVPLITKADGTKFGKTEGGAVWLDPKKTSPYKFYQFWINTADADVYRFLKFFTFMSIEEINALEEEDKNSGKAPRAQYVLAEQVTRLVHGEEGLQAAKRITECLFSGSLSALSEADFEQLAQDGVPMVEMEKGADLMQALVDSELQPSRGQARKTIASNAITINGEKQSDPEYFFKEEDRLFGRFTLLRRGKKNYCLICWK
B2: 37A: E. coli TyrRS variant: position 37 Alanine, position 195 Glutamine (protein, UniProt P0AGJ9 2-424, looked up, variant Y37A)
Tyrosine--tRNA ligase: ASSNLIKQLQERGLVAQVTDEEALAERLAQGPIALACGFDPTADSLHLGHLVPLLCLKRFQQAGHKPVALVGGATGLIGDPSFKAAERKLNTEETVQEWVDKIRKQVAPFLDFDCGENSAIAANNYDWFGNMNVLTFLRDIGKHFSVNQMINKEAVKQRLNREDQGISFTEFSYNLLQGYDFACLNKQYGVVLQIGGSDQWGNITSGIDLTRRLHQNQVFGLTVPLITKADGTKFGKTEGGAVWLDPKKTSPYKFYQFWINTADADVYRFLKFFTFMSIEEINALEEEDKNSGKAPRAQYVLAEQVTRLVHGEEGLQAAKRITECLFSGSLSALSEADFEQLAQDGVPMVEMEKGADLMQALVDSELQPSRGQARKTIASNAITINGEKQSDPEYFFKEEDRLFGRFTLLRRGKKNYCLICWK
B3: LA: E. coli TyrRS double variant: position 37 Leucine, position 195 Alanine (protein, UniProt P0AGJ9 2-424, looked up, variant Y37L Q195A)
Tyrosine--tRNA ligase: B2 Tyrosine--tRNA ligase with A36L, Q194A
B4: LN: E. coli TyrRS double variant: position 37 Leucine, position 195 Asparagine (protein, UniProt P0AGJ9 2-424, looked up, variant Y37L Q195N)
Tyrosine--tRNA ligase: B2 Tyrosine--tRNA ligase with A36L, Q194N
B5: 37L: E. coli TyrRS variant: position 37 Leucine, position 195 Glutamine (protein, UniProt P0AGJ9 2-424, looked up, variant Y37L)
Tyrosine--tRNA ligase: B2 Tyrosine--tRNA ligase with A36L
B6: 195C: E. coli TyrRS variant: position 37 Tyrosine, position 195 Cysteine (protein, UniProt P0AGJ9 2-424, looked up, variant Q195C)
Tyrosine--tRNA ligase: B2 Tyrosine--tRNA ligase with A36Y, Q194C
B7: 195A: E. coli TyrRS variant: position 37 Tyrosine, position 195 Alanine (protein, UniProt P0AGJ9 2-424, looked up, variant Q195A)
Tyrosine--tRNA ligase: B2 Tyrosine--tRNA ligase with A36Y, Q194A
B8: 195S: E. coli TyrRS variant: position 37 Tyrosine, position 195 Serine (protein, UniProt P0AGJ9 2-424, looked up, variant Q195S)
Tyrosine--tRNA ligase: B2 Tyrosine--tRNA ligase with A36Y, Q194S
B9: 37I: E. coli TyrRS variant: position 37 Isoleucine, position 195 Glutamine (protein, UniProt P0AGJ9 2-424, looked up, variant Y37I)
Tyrosine--tRNA ligase: B2 Tyrosine--tRNA ligase with A36I
B10: 195N: E. coli TyrRS variant: position 37 Tyrosine, position 195 Asparagine (protein, UniProt P0AGJ9 2-424, looked up, variant Q195N)
Tyrosine--tRNA ligase: B2 Tyrosine--tRNA ligase with A36Y, Q194N
B11: IN: E. coli TyrRS double variant: position 37 Isoleucine, position 195 Asparagine (protein, UniProt P0AGJ9 2-424, looked up, variant Y37I Q195N)
Tyrosine--tRNA ligase: B2 Tyrosine--tRNA ligase with A36I, Q194N
B12: LS: E. coli TyrRS double variant: position 37 Leucine, position 195 Serine (protein, UniProt P0AGJ9 2-424, looked up, variant Y37L Q195S)
Tyrosine--tRNA ligase: B2 Tyrosine--tRNA ligase with A36L, Q194S
B13: AA: E. coli TyrRS double variant: position 37 Alanine, position 195 Alanine (protein, UniProt P0AGJ9 2-424, looked up, variant Y37A Q195A)
Tyrosine--tRNA ligase: B2 Tyrosine--tRNA ligase with Q194A
B14: IS: E. coli TyrRS double variant: position 37 Isoleucine, position 195 Serine (protein, UniProt P0AGJ9 2-424, looked up, variant Y37I Q195S)
Tyrosine--tRNA ligase: B2 Tyrosine--tRNA ligase with A36I, Q194S
B15: AN: E. coli TyrRS double variant: position 37 Alanine, position 195 Asparagine (protein, UniProt P0AGJ9 2-424, looked up, variant Y37A Q195N)
Tyrosine--tRNA ligase: B2 Tyrosine--tRNA ligase with Q194N
B16: IC: E. coli TyrRS double variant: position 37 Isoleucine, position 195 Cysteine (protein, UniProt P0AGJ9 2-424, looked up, variant Y37I Q195C)
Tyrosine--tRNA ligase: B2 Tyrosine--tRNA ligase with A36I, Q194C

Assay: Aminoacylation activity by Lloyd's method (release of pyrophosphates)
Format: biochemical
Details: at 37° C.; 200 μM 3-iodotyrosine
Experimental: In the second method, Lloyd's method (Nucleic Acids Research, 23:2886-2892, 1995) was carried out without alteration.
In the second method, the activity was assayed by Lloyd's method (Nucleic Acids Research, 23:2886-2892, 1995). Each enzyme obtained was incubated with 0.4 ml of the buffer B containing 1 mM ATP (Seikagaku Corporation), 100 μM purified crude tyrosyl-tRNA, 200 μM tyrosine or 3-iodotyrosine at 37° C. for 6 min. The aminoacylation activity was represented as concentrations of released phosphate per min.

Row | Molecule | Initial velocity of release of pyrophosphates, 3-iodotyrosine [nM PPi/min/nM enzyme]
1 | B1 | <0.05
2 | B2 | 12

Same assay, conditions: at 37° C.; 200 μM tyrosine

Row | Molecule | Initial velocity of release of pyrophosphates, Tyrosine [nM PPi/min/nM enzyme]
3 | B1 | 400
4 | B2 | 51

Assay: Aminoacylation reaction, simplified Lloyd's method, inorganic phosphate detected with Biomol green
Format: biochemical
Design: key: ***: the reaction could be detected strongly at 25 nM; **: strongly at 250 nM; *: weakly at 250 nM; the activity is high in the order of *** > ** > * > —
Details: Table 3; tyrosine 200 μM; 37° C. for 4 min
Experimental: (§1) In the first method, Lloyd's method (Nucleic Acids Research, 23:2886-2892, 1995) where inorganic phosphate produced by pyrophosphatase-drived hydrolysis of pyrophosphate which was one of the reaction products of the aminoacylation reactions was quantified was simplified, and the inorganic phosphate was detected using Biomol green (Funakoshi) to carry out the measurement of the aminoacylation reaction.
(§2) Amino acid concentrations were 200 μM and 1 mM for tyrosine and 3-iodotyrosine, respectively.
(§3) The method where the aminoacylation reaction is measured by quantifying inorganic phosphate produced by pyrophosphatase-drived hydrolysis of pyrophosphate which is one of reaction products of the aminoacylation has been described by Lloyd et al. (Nucleic Acids Research, 23:2886-2892, 1995). In one method of the invention, this method was simplified and the aminoacylation reaction was measured by the detection of inorganic phosphate using Biomol green (Funakoshi). […] To stop the reaction, 0.1 ml of Bio mol green was added. Absorbance of its supernatant was measured at 630 nm.

Row | Molecule | Aminoacylation activity, Tyrosine
5 | B1 | ***
6 | B3 | *
7 | B4 | *

Assay: as above
Format: biochemical
Design: key: ***: the aminoacylation reaction was detected by a microplate reader in the reaction at enzyme concentrations of 50 nM; **: 500 nM; *: 5 μM; the activity is high in the order of *** > ** > * > —
Details: Table 2; tyrosine 200 μM; 37° C. for 4 min
Experimental: as §1, §2, §3

Row | Molecule | Aminoacylation activity, Tyrosine
8 | B1 | ***
9 | B5 | ***
10 | B6 | ***
11 | B2 | ***
12 | B7 | ***
13 | B8 | ***
14 | B9 | **
15 | B10 | ***

Same assay, conditions: Table 3; tyrosine 200 μM; 37° C. for 4 min

Row | Molecule | Aminoacylation activity, Tyrosine
16 | B11 | —
17 | B12 | —
18 | B13 | —
19 | B14 | —
20 | B15 | —
21 | B16 | —

Assay: as above
Format: biochemical
Design: key: ***: the aminoacylation reaction was detected by a microplate reader in the reaction at enzyme concentrations of 50 nM; **: 500 nM; *: 5 μM; the activity is high in the order of *** > ** > * > —
Details: Table 2; 3-iodotyrosine 1 mM; 37° C. for 4 min
Experimental: as §1, §2
The method where the aminoacylation reaction is measured by quantifying inorganic phosphate produced by pyrophosphatase-drived hydrolysis of pyrophosphate which is one of reaction products of the aminoacylation has been described by Lloyd et al. (Nucleic Acids Research, 23:2886-2892, 1995). In one method of the invention, this method was simplified and the aminoacylation reaction was measured by the detection of inorganic phosphate using Biomol green (Funakoshi). Each enzyme obtained was incubated with 0.05 ml of the buffer B containing 1 mM ATP (Seikagaku Corporation), 30 μM purified crude tyrosyl-tRNA, and 100 μM tyrosine or 0.5 mM 3-iodotyrosine at 37° C. for one hour. To stop the reaction, 0.1 ml of Bio mol green was added. Absorbance of its supernatant was measured at 630 nm.

Row | Molecule | Aminoacylation activity, 3-iodotyrosine
22 | B1 | —
23 | B5 | ***
24 | B6 | *
25 | B2 | ***
26 | B7 | *
27 | B8 | *
28 | B9 | ***
29 | B10 | *

Same assay, conditions: Table 3; 3-iodotyrosine 1 mM; 37° C. for 4 min

Row | Molecule | Aminoacylation activity, 3-iodotyrosine
30 | B1 | —
31 | B11 | —
32 | B3 | —
33 | B12 | —
34 | B13 | —
35 | B14 | —
36 | B15 | —
37 | B4 | —
38 | B16 | —
